# Reference: the supplement of paper PMC11246515
# ± gives the standard deviation of the averaged measurements.
# Test: total protein half-life in vivo (active degradation + dilution); higher = more stable protein
# [1] = E. coli NCM3722 delta-clpP delta-lon delta-hslV, growth: N-lim chemostat, doubling time 6 h
# [2] = E. coli NCM3722 delta-clpP, growth: N-lim chemostat, doubling time 6 h
# [3] = E. coli NCM3722 delta-hslV, growth: N-lim chemostat, doubling time 6 h
# [4] = E. coli NCM3722 delta-lon, growth: N-lim chemostat, doubling time 6 h
# [5] = E. coli NCM3722 delta-smpB, growth: N-lim chemostat, doubling time 6 h
# [6] = wild type E. coli NCM3722, growth: C-lim chemostat, doubling time 3 h
# [7] = wild type E. coli NCM3722, growth: C-lim chemostat, doubling time 6 h
# [8] = wild type E. coli NCM3722, growth: C-lim chemostat, doubling time 12 h
# [9] = wild type E. coli NCM3722, growth: N-lim chemostat, doubling time 6 h
# [10] = wild type E. coli NCM3722, growth: N-lim chemostat, doubling time 12 h
# [11] = wild type E. coli NCM3722, growth: P-lim chemostat, doubling time 6 h
# [12] = wild type E. coli NCM3722, growth: P-lim chemostat, doubling time 12 h
Sequence,total protein half-life in vivo [1] [h],total protein half-life in vivo [2] [h],total protein half-life in vivo [3] [h],total protein half-life in vivo [4] [h],total protein half-life in vivo [5] [h],total protein half-life in vivo [6] [h],total protein half-life in vivo [7] [h],total protein half-life in vivo [8] [h],total protein half-life in vivo [9] [h],total protein half-life in vivo [10] [h],total protein half-life in vivo [11] [h],total protein half-life in vivo [12] [h]
MQGKALQDFVIDKIDDLKGQDIIALDVQGKSSITDCMIICTGTSSRHVMSIADHVVQESRAAGLLPLGVEGENSADWIVVDLGDVIVHVMQEESRRLYELEKLWS [P0AAT6],6.28 ± 1.2,3.63 ± 1.7,2.21 ± 0.063,5.5 ± 0.84,2.65 ± 0.19,2.6 ± 0.59,3.58,> 16,2.72,3.51 ± 0.17,2.2,4.01
MQGTKIRLLAGGLLMMATAGYVQADALQPDPAWQQGTLSNGLQWQVLTTPQRPSDRVEIRLLVNTGSLAESTQQSGYSHAIPRIALTQSGGLDAAQARSLWQQGIDPKRPMPPVIVSYDTTLFNLSLPNNRNDLLKEALSYLANATGKLTITPETINHALQSQDMVATWPADTKEGWWRYRLKGSTLLGHDPADPLKQPVEAEKIKDFYQKWYTPDAMTLLVVGNVDARSVVDQINKTFGELKGKRETPAPVPTLSPLRAEAVSIMTDAVRQDRLSIMWDTPWQPIRESAALLRYWRADLAREALFWHVQQALSASNSKDIGLGFDCRVLYLRAQCAINIESPNDKLNSNLNLVARELAKVRDKGLPEEEFNALVAQKKLELQKLFAAYARADTDILMGQRMRSLQNQVVDIAPEQYQKLRQDFLNSLTVEMLNQDLRQQLSNDMALILLQPKGEPEFNMKALQAVWDQIMAPSTAAATTSVATDDVHPEVTDIPPAQ,5.67 ± 0.23,6.56 ± 1.4,6.33 ± 0.55,,6.16 ± 0.15,3.02 ± 0.35,6.42 ± 0.41,9.83 ± 0.8,6.08 ± 0.24,12.55 ± 0.063,6.3 ± 0.32,14.2 ± 0.33
MQHETKMENQSWLKKLARRLGPGHVVNLCFIVVLLFSTLLTWREVVVLEDAYISSQRNHLENVANALDKHLQYNVDKLIFLRNGMREALVAPLDFTSLRDAVTEFEQHRDEHAWKIELNRRRTLPVNGVSDALVSEGNLLSRENESLDNEITAALEVGYLLRLAHNSSSMVEQAMYVSRAGFYVSTQPTLFTRNVPTRYYGYVTQPWFIGHSQRENRHRAVRWFTSQPEHASNTEPQVTVSVPVDSNNYWYGVLGMSIPVRTMQQFLRNAIDKNLDGEYQLYDSKLRFLTSSNPDHPTGNIFDPRELALLAQAMEHDTRGGIRMDSRYVSWERLDHFDGVLVRVHTLSEGVRGDFGSISIALTLLWALFTTMLLISWYVIRRMVSNMYVLQSSLQWQAWHDTLTRLYNRGALFEKARPLAKLCQTHQHPFSVIQVDLDHFKAINDRFGHQAGDRVLSHAAGLISSSLRAQDVAGRVGGEEFCVILPGASLTEAAEVAERIRLKLNEKEMLIAKSTTIRISASLGVSSSEETGDYDFEQLQSLADRRLYLAKQAGRNRVFASDNA,,7.2 ± 0.57,6.48 ± 0.5,,5.94 ± 0.3,3.34 ± 0.062,6.39 ± 0.087,12.3 ± 0.47,6.01 ± 0.53,,6.56 ± 0.22,12.2 ± 0.31
MQILADLLNTIPAIDSTAMSRAQRHIDGLLKPVGSLGKLEVLAIQLAGMPGLNGIPHVGKKAVLVMCADHGVWEEGVAISPKEVTAIQAENMTRGTTGVCVLAEQAGANVHVIDVGIDTAEPIPGLINMRVARGSGNIASAPAMSRRQAEKLLLDVICYTQELAKNGVTLFGVGELGMANTTPAAAIVSTITGRDPEEVVGIGANLPTDKLANKIDVVRRAITLNQPNPQDGVDVLAKVGGFDLVGIAGVMLGAASCGLPVLLDGFLSYAAALAACQMSPAIKPYLIPSHLSAEKGARIALSHLGLEPYLNMEMRLGEGSGAALAMPIIEAACAIYNNMGELAASNIVLPGNTTSDLNS,4.974 ± 0.0055,4.84 ± 1.1,3.39 ± 0.091,,3.17 ± 0.12,3 ± 0.2,4.63 ± 0.68,8.1 ± 0.064,3.27 ± 0.16,5.18 ± 0.075,4.994 ± 0.018,9.91 ± 0.96
MQILFNDQAMQCAAGQTVHELLEQLDQRQAGAALAINQQIVPREQWAQHIVQDGDQILLFQVIAGG,2.75,,,,,,,4.47,1.3,,3.24,5.24 ± 0.77
MQILLANPRGFCAGVDRAISIVENALAIYGAPIYVRHEVVHNRYVVDSLRERGAIFIEQISEVPDGAILIFSAHGVSQAVRNEAKSRDLTVFDATCPLVTKVHMEVARASRRGEESILIGHAGHPEVEGTMGQYSNPEGGMYLVESPDDVWKLTVKNEEKLSFMTQTTLSVDDTSDVIDALRKRFPKIVGPRKDDICYATTNRQEAVRALAEQAEVVLVVGSKNSSNSNRLAELAQRMGKRAFLIDDAKDIQEEWVKEVKCVGVTAGASAPDILVQNVVARLQQLGGGEAIPLEGREENIVFEVPKELRVDIREVD,5.14 ± 0.44,3.68 ± 0.91,2.78 ± 0.23,3.1 ± 0.29,2.44 ± 0.24,2.5 ± 0.044,3.72 ± 0.34,5.14 ± 0.29,2.69 ± 0.3,3.69 ± 0.062,2.89 ± 0.034,5.25 ± 0.3
MQKEQLSALMDGETLDSELLNELAHNPEMQKTWESYHLIRDSMRGDTPEVLHFDISSRVMAAIEEEPVRQPATLIPEAQPAPHQWQKMPFWQKVRPWAAQLTQMGVAACVSLAVIVGVQHYNGQSETSQQPETPVFNTLPMMGKASPVSLGVPSEATANNGQQQQVQEQRRRINAMLQDYELQRRLHSEQLQFEQAQTQQAAVQVPGIQTLGTQSQ [P0AFX7],,,,,,,0.455 ± 0.09,0.469,0.895 ± 0.046,0.953 ± 0.18,0.801,1.03 ± 0.45
MQKIVIVANGAPYGSESLFNSLRLAIALREQESNLDLRLFLMSDAVTAGLRGQKPGEGYNIQQMLEILTAQNVPVKLCKTCTDGRGISTLPLIDGVEIGTLVELAQWTLSADKVLTF [P0AB52],5.73 ± 0.71,5.32 ± 0.28,4.94 ± 1.6,5.96 ± 0.57,4.81 ± 0.086,2.64 ± 0.25,6.4 ± 1.1,13.2 ± 0.93,5.55 ± 0.19,10.1 ± 0.94,5.43,12.5 ± 1.7
MQKLKQQVFEANMELPRYGLVTFTWGNVSAIDRERGLVVIKPSGVAYETMKAADMVVVDMSGKVVEGEYRPSSDTATHLELYRRYPSLGGIVHTHSTHATAWAQAGLAIPALGTTHADYFFGDIPCTRGLSEEEVQGEYELNTGKVIIETLGNAEPLHTPGIVVYQHGPFAWGKDAHDAVHNAVVMEEVAKMAWIARGINPQLNHIDSFLMNKHFMRKHGPNAYYGQK,4.02 ± 1.1,,,,,,,,,,,
